Consider 1 substance from US20040214774A1.

Experiment [1] concerns the target apoE4 (human) (UniProt P02649). As to the kind of experiment: competitive inhibition ELISA: lipidated apoE4 100 nM preincubated with Aβ12-28P (0-400 nM), added to Aβ1-40 coated wells; one-site competition fit. In general terms: In an ELISA, binding on a coated surface is turned into a signal by an enzyme label.
The next experiment has as its target apoE3 (human) (UniProt P02649). As to the kind of experiment: cell-based or functional assay.
For experiment [2], the target named is apoE4 (human) (UniProt P02649). As to the kind of experiment: cell-based or functional assay.
apoE4 (human), sequence (P02649 19-317 C130R limits assumed): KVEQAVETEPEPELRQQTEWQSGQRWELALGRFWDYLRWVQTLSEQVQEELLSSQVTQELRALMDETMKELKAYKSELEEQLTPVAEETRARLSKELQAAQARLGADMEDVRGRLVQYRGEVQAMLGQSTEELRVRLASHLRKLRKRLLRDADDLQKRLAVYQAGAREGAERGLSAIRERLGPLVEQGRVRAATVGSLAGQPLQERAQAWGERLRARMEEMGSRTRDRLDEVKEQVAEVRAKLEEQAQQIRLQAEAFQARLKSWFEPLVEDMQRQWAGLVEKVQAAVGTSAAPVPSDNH

apoE3 (human), sequence (P02649 19-317 limits assumed): as the sequence (P02649 19-317 C130R limits assumed) above, with R112C counted along it

Regarding Aβ12-28P (peptide), in the experiment with apoE4 (human) [1], the IC50 (usually the concentration at which inhibition is half-maximal) worked out at 36.7 nM. In the experiment with apoE3 (human), this substance displayed a relative reduction in Thioflavin-T fluorescence of Aβ1-42 with apoE3 after 24 h of incubation of 14.5% and a relative reduction in Thioflavin-T fluorescence of Aβ1-42 with apoE3 by day six of 48.3%. In addition, in the experiment with apoE4 (human) [2], the relative reduction in Thioflavin-T fluorescence of Aβ1-42 with apoE4 after 24 h of incubation is 25.3% and the relative reduction in Thioflavin-T fluorescence of Aβ1-42 with apoE4 by day six was 52.3%.
